In patent US20250027068:

Molecular target: pooled human IgG (human IgG1,2,3 and 4)

Row | Protein | Enzyme Activity Endpoint Assay: Fab′2 [ng/µL] | Enzyme Activity Endpoint Assay: Fc [ng/µL] | Enzyme Activity Endpoint Assay: IgG [ng/µL] | Enzyme Activity Endpoint Assay: scIgG [ng/µL]
1 | PRT-618 (protein) MQITSVWTKGVIPLTPEQFRYNNEDVIHAPYLPHQGWYDITKAFDGGDNLLCGAATAGNMLHWWFDQNKTEIEAYLSKYPEKQKIIFNNQELFDLRAAINTKDSQTNSQLFNYFRDKAFPNLSARQLGVMPDLVLDMFINGYYLNVFKTQSTDVNRPYQDRDKRGGIFDHVFGRGDQTTLLTARHDLKNGGLNDISTIIKQELQSGRALALSHTYANVSISHVINLWGADFNAEGNLEAIYVTDSDANSSIGMKKYYVGINAHGHVAISAKKIEGENIGAQVLGLFTLSSGKEIWQKLSLEHHHHHH | 976 | 419 | 0 | 0
2 | PRT-506 (protein) MITSVWTKGVTPPTDFIKGEDVFHAPYKAGQGWYDITKTFNGKDDLLCGAATAGNMLHWWFDQNKEEIEAYLKKHPEKQKIMFGDQELLDVRKVINTKDSQTNSALFNYFKDKAFPNLSARRLGVMPDLVLDMFINGYYLNVYKTQTTDVNRTYQTKDRRGGIFDAVFTRGDQSKLLTERHDFKEKTLKEISDLIKQELTEGKALGLSHTYANVRINHVINLWGADFDSNGNLEAIYVTDSDSNASIGMKKYFVGVNSAGKVAISAKEIKEDNIGAQVLGLFTLSTGQDIWNQTNLEHHHHHH | 1120 | 453 | 43 | 0
3 | PRT-502 (protein) MITSVWTKGVTPPTDFIKGEDVFHAPYKAGQGWYDITKAFDGGDDLLCGAATAGNMLHWWFDQNKEYIEAYLKKHPEKQKIMFGDQELLDVRKAINTKGSQKNSELFNYFRDKAFPNLSARRLGVMPDLVLDMFINGYYLNVTKTQTTDVNRQEQEKDKRGGIFDAVFGRGDQTKLLTSRHDFKEKGLNEISQLIKQELTEGKALGLSHTYANVRINHVINLWGADFDADGNLEAIYVTDSDSNASIGMKKYFVGVNSAGKVAISAKEIKEDNIGAQVLGLFTLSTGQKIWNKTNLEHHHHHH | 307 | 283 | 66 | 296
4 | PRT-454 (protein) MITSVWTKGVTPPTDFIKGEDVFHAPYKAGQGWYDITKAFDGGDDLLCGAATAGNMLHWWFDQNKDQIEAYLKEHPEKQKINFNGEQMFDVKEAIDTKDDQTNSELFNYFKEKAFPYLSTKHLGVFPDHVLDMFINGYRLSLTNHGPTPVKRQEKDPRGGIFDAVFGRGDQTKLLTSRHDFKEKTLNEISQLIKQELTEGKALALSHTYANVRINHVINLWGADFDAEGNLEAIYVTDSDSNASIGMKKYFVGVNSAGKVAISAKEIEDDNIGAQVLGLFTLSTGQKIWNKTNLEHHHHHH | 217 | 317 | 94 | 653
5 | PRT-494 (protein) MVTSVWTKGVTPPTDFIKGEDVFHAPYKAGQGWYDITKTFNGKDDLLCGAATAGNMLHWWFDQNKEYIEAYLKKHPEKQKIMFGDQELLDVRKAINTKGSQKNSELFNYFRDKAFPNLSARRLGVMPDLVLDMFINGYYLNVTKTQTTDVNRTYQEKDKRGGIFDAVFTRGDQSKLLTSRHDFKEKGLKEISDLIKQELTEGKALGLSHTYANVRINHVINLWGADFDSDGNLKAIYVTDSDSNASIGMKKYFVGVNSAGKVAISAKEIKEDNIGAQVLGLFTLSTGQDIWNQTNLEHHHHHH | 1210 | 489 | 0 | 0
6 | PRT-512 (protein) MITSVWTKGVTPPAKFTQGEDVFHAPYVANQGWYDITKAFDGGDDLLCGAATAGNMLHWWFDQNKEEIEAYLKKHPEKQKIMFGDQELLDVRKVINTKDSQTNSALFNYFKDKAFPNLSARRLGVMPDLVLDMFINGYYLNVYKTQTTDVNRTYQTKDRRGGIFDAVFTRGDQSKLLTERHDLKNKTLKEISDLIKQELTEGKALGLSHTYANVRINHVINLWGADFDSNGNLEAIYVTDSDSNASIGMKKYFVGVNSAGKVAISAKEIKEDNIGAQVLGLFTLSTGQDIWNQTNLEHHHHHH | 884 | 372 | 31 | 0
7 | PRT-670 (protein) MQITSVWTKGVTPLTPEQFRNNNEDVFHAPYLPNQGWYDITKAFNGKDNLLCGAATAGNMLHWWFDQNKEEIEAYLKKYPEKQKIIFNNQELFDLRKAINTKDSQTNSALFNYFRDKAFPNLSARQLGVMPDHVLDMFINGYYLNVGKTQSTDVNRPYQDKDKRGGIFDHVFNRGDQTKLLTARHDLKNKTLNDISTLIKQELSSGKALALSHTYANVGISHVINLWGADFNAEGNLEAIYVTDSDDRASIGMKKYYVGRNASGHVAISAKKIEGENLGAQVLGLFTLSSGKEIWQKLSLEHHHHHH | 0 | 174 | 594 | 798
8 | PRT-446 (protein) MVTSVWTKGVTPPTDFIKGEDVFHAPYKAGQGWYDITKTFNGKDDLLCGAATAGNMLHWWFDQNKDQIEAYLKEHPEKQKINFNGEQMFDVKEAIDTKDDQTNSKLFEYFKEKAFPYLSTKHLGVFPDHVLDMFINGYRLSLTNHGPTPVKEGSKDPRGGIFDAVFTRGDQSKLLTSRHDFKEKTLKEISDLIKQELTEGKALALSHTYANVRINHVINLWGADFDSNGNLEAIYVTDSDSNASIGMKKYFVGVNSAGKVAISAKEIEDDNIGAQVLGLFTLSTGQDIWNQTNLEHHHHHH | 1130 | 427 | 0 | 0
9 | PRT-458 (protein) MVTSVWTKGVTPPTDFIKGEDVFHAPYKAGQGWYDITKTFNGKDDLLCGAATAGNMLHWWFDQNKDQIERYLKEHPEKQKINFNGEQMFDVKEAIDTKDSQTDSKLFEYFKEKAFPYLSTKHLGVFPDHVLDMFINGYRLSLTNHGPTPVKEGSKDPRGGIFDAVFTRGDQSKLLTSRHDFKEKTLKEISDLIKQELTEGKALGLSHTYANVRINHVINLWGADFDSEGNLKAIYVTDSDSNASIGMKKYFVGVNSAGKVAISAKEIKEDNIGAQVLGLFTLSTGQDIWNQTNLEHHHHHH | 598 | 224 | 112 | 226
10 | PRT-448 (protein) MVTSVWTKGVTPPTDFIKGEDVFHAPYKAGQGWYDITKTFNGKDDLLCGAATAGNMLHWWFDQNKDQIEAYLKEHPEKQKINFNGEQMFDVKEAIDTKDDQTNSKLFEYFKEKAFPYLSTKHLGVFPDHVLDMFINGYRLSLTNHGPTPVKEGSKDPRGGIFDAVFTRGDQSKLLTSRHDLKNKTLKEISDLIKQELTEGKALALSHTYANVRINHVINLWGADFDSNGNLEAIYVTDSDSNASIGMKKYFVGVNSAGKVAISAKEIEDDNIGAQVLGLFTLSTGQDIWNQTNLEHHHHHH | 0 | 0 | 2150 | 0
11 | PRT-468 (protein) MITSVWTKGVTPPTDFIKGEDVFHAPYKAGQGWYDITKAFDGGDDLLCGAATAGNMLHWWFDQNKDQIERYLKEHPEKQKINFNGEQMFDVKEAIDTKDSQTNSELFNYFKEKAFPYLSTKHLGVFPDHVLDMFINGYRLSLTNHGPTPVKEGSKDPRGGIFDAVFTRGDQSKLLTSRHDLKNKTLNEISQLIKQELTEGKALGLSHTYANVRINHVINLWGADFDAEGNLEAIYVTDSDSNASIGMKKYFVGVNSAGKVAISAKEIKEDNIGAQVLGLFTLSTGQDIWNQTNLEHHHHHH | 957 | 385 | 115 | 66
12 | PRT-491 (protein) MVTSVWTKGVTPPTDFIYGEDVLHAPYKAGQGWYDITKTFNGKDNLLCGAATAGNMLHWWFDQNKEQIENYLKKHPEKQKIIFNNQELFDLKAAIDTKDSQLDSKLFEYFKEKAFPYLSTKHLGVFPDHVIDMFINGYRLSLTNHGPTPVKRGSKDKRGGIFDAVFTRGVQSKLLTNRHDLKNKTLKEISDLIKQELTEGKALGISHTYANVRINHVINLWGADFDAEGNLEAIYVTDSDTNASIGMKKYFVGVNSNGKVAISAKEIEEDNIGAQVLGLFTLSTGQDIWNQTNLEHHHHHH | 769 | 260 | 140 | 331
13 | PRT-480 (protein) MITSVWTKGVTPPTDFIYGEDVLHAPYKAGQGWYDITKAFDGGDDLLCGAATAGNMLHWWFDQNKEQIENYLKKHPEKQKINFNGEQMFDVKEAIDTKDSQTNSELFNYFKEKAFPYLSTKHLGVFPDHVIDMFINGYRLSLTNHGPTPVKRGSKDPRGGIFDAVFTRGDQSKLLTNRHDLKNKTLNEISQLIKQELTEGKALGISHTYANVRINHVINLWGADFDAEGNLEAIYVTDSDSNASIGMKKYFVGVNSNGKVAISAKEIEEDNIGAQVLGLFTLSTGQDIWNQTNLEHHHHHH | 846 | 325 | 0 | 0
14 | PRT-478 (protein) MITSVWTKGVTPPTDFIYGEDVLHAPYKAGQGWYDITKAFDGGDDLLCGAATAGNMLHWWFDQNKEQIENYLKKHPEKQKINFNGEQMFDVKEAIDTKDSQTNSELFNYFKEKAFPYLSTKHLGVFPDHVIDMFINGYRLSLTNHGPTPVKRQEKDPRGGIFDAVFGRGDQTKLLTNRHDFKEKTLNEISQLIKQELTEGKALGISHTYANVRINHVINLWGADFDAEGNLEAIYVTDSDSNASIGMKKYFVGVNSNGKVAISAKEIEEDNIGAQVLGLFTLSTGQKIWNKTNLEHHHHHH | 509 | 453 | 216 | 362
